Assay results taken from patent publication US20130064825A1.

How the values were obtained:
[1] = target: cynomolgus monkey PCSK9, V5-6xHIS tagged (cynomolgus monkey); test: KinExA solution equilibrium, PCSK9-coated beads
[2] = target: cynomolgus monkey PCSK9, V5-6xHIS tagged (cynomolgus monkey); test: SPR (Biacore 2000), antibody amine-coupled on CM5 chip, PCSK9 injected, pH 7.4

Kd [1]: 0.002 nM | Kd [2]: 0.19 nM
Substance: 31H4, anti-PCSK9 huIgG4 (antibody)
